Experimental data: IntAct's records for PubMed 12023880

B1: Tyrosine-protein phosphatase non-receptor type 1 (Homo sapiens), P18031 (parent)
chain: MEMEKEFEQIDKSGSWAAIYQDIRHEASDFPCRVAKLPKNKNRNRYRDVSPFDHSRIKLHQEDNDYINASLIKMEEAQRSYILTQGPLPNTCGHFWEMVWEQKSRGVVMLNRVMEKGSLKCAQYWPQKEEKEMIFEDTNLKLTLISEDIKSYYTVRQLELENLTTQETREILHFHYTTWPDFGVPESPASFLNFLFKVRESGSLSPEHGPVVVHCSAGIGRSGTFCLADTCLLLMDKRKDPSSVDIKKVLLEMRKFRMGLIQTADQLRFSYLAVIEGAKFIMGDSSVQDQWKELSHEDLEPPPEHIPPPPRPPKRILEPHNGKCREFFPNHQWVKEETQEDKDCPIKEEKGSPLNAAPYGIESMSQDTEVRSRVVGGSLRGAQAASPAKGEPSLPEKDEDHALSYWKPFLVNMCVATVLTAGAYLCYRFLFNSNT
partner: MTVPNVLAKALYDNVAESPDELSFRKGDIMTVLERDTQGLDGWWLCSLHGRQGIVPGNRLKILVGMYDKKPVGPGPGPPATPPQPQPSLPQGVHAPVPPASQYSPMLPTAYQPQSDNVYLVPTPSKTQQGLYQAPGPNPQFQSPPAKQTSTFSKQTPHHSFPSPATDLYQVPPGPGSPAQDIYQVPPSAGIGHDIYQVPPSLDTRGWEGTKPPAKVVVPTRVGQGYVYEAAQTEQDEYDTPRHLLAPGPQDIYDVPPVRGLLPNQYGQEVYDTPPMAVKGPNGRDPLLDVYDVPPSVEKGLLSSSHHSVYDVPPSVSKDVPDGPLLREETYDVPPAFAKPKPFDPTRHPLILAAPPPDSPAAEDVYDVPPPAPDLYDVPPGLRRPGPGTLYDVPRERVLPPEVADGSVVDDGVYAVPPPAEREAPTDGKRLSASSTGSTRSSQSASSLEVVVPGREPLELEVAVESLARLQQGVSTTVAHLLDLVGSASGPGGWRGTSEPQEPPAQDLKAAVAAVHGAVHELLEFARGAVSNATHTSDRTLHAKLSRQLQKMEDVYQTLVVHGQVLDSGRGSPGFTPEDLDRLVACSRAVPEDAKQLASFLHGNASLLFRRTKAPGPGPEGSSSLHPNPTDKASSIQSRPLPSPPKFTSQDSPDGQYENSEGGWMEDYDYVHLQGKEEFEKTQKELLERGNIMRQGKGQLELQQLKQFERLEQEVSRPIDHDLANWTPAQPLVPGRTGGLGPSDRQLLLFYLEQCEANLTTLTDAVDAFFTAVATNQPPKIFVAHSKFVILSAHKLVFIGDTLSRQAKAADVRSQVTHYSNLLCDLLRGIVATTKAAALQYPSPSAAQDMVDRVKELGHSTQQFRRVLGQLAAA
B2: Tyrosine-protein phosphatase non-receptor type 1 (Homo sapiens), P18031 (parent)
chain: B1 chain

Variants of: B1
Conditions: with bcar1_mouse Bcar1, Q61140

| Variant | effect of a mutation on the interaction |
| --- | --- |
| P309A;P310A | disrupting interaction |

Variants of: B2
Conditions: with src_rat Src

| Variant | effect of a mutation on the interaction |
| --- | --- |
| P309A;P310A | disrupting interaction |

Variants of: B2
Conditions: with grb2_rat Grb2, P62994
Sequence of grb2_rat Grb2, P62994 (P62994 whole entry, looked up): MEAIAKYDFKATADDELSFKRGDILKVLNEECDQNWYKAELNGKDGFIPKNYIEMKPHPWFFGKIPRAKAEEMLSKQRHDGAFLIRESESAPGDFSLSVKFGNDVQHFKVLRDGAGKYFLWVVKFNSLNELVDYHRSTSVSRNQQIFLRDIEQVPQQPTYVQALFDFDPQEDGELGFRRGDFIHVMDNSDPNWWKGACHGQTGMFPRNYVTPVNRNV

| Variant | effect of a mutation on the interaction |
| --- | --- |
| P309A;P310A | disrupting interaction |

Variants of: B2
Conditions: with crk_rat Crk

| Variant | effect of a mutation on the interaction |
| --- | --- |
| P309A;P310A | disrupting interaction |

Variants of: B2
Conditions: with insr_rat Insr

| Variant | effect of a mutation on the interaction |
| --- | --- |
| MEMEKEFEQIDKSGSWAAIYQDIRHEASDFPCRVAKLPKNKNRNRYRDVSPFDHSRIKLHQEDNDYINASLIKMEEAQRSYILTQGPLPNTCGHFWEMVWEQKSRGVVMLNRVMEKGSLKCAQYWPQKEEKEMIFEDTNLKLTLISEDIKSFFTVRQLELENLTTQETREILHFHYTTWPDFGVPESPASFLNFLFKVRESGSLSPEHGPVVVHCSAGIGRSGTFCLADTCLLLMDKRKDPSSVDIKKVLLEMRKFRMGLIQTADQLRFSYLAVIEGAKFIMGDSSVQDQWKELSHEDLEPPPEHIPPPPRPPKRILEPHNGKCREFFPNHQWVKEETQEDKDCPIKEEKGSPLNAAPYGIESMSQDTEVRSRVVGGSLRGAQAASPAKGEPSLPEKDEDHALSYWKPFLVNMCVATVLTAGAYLCYRFLFNSNT [Y152F;Y153F] | disrupting interaction |
